Data: patent publication US20190309059A1 (SHANGHAI PHARMAEXPLORER, published 2019)

Experiments:
[1] = target: his-labeled human IL-13 (immunogen A) (human) (UniProt P35225); assay: cell-based or functional assay
[2] = target: cynomolgus IL-13 (purchased from sino biological) (cynomolgus) (UniProt Q0PW92); assay: ELISA, cynomolgus IL-13; antibody at 0.53 nM
[3] = target: cynomolgus IL-13 (purchased from sino biological) (cynomolgus) (UniProt Q0PW92); assay: ELISA, cynomolgus IL-13; antibody at 13.3 nM
[4] = target: cynomolgus IL-13 (purchased from sino biological) (cynomolgus) (UniProt Q0PW92); assay: ELISA, cynomolgus IL-13; antibody at 2.67 nM
[5] = target: cynomolgus IL-13 (purchased from sino biological) (cynomolgus) (UniProt Q0PW92); assay: ELISA, cynomolgus IL-13; antibody at 0.004 nM
[6] = target: cynomolgus IL-13 (purchased from sino biological) (cynomolgus) (UniProt Q0PW92); assay: ELISA, cynomolgus IL-13; antibody at 0.021 nM
[7] = target: his-labeled human IL-13 (immunogen A) (human) (UniProt P35225); assay: ELISA, biotin-immunogen A; antibody at 0.11 nM
[8] = target: his-labeled human IL-13R130Q variant (human) (UniProt P35225); assay: ELISA, IL-13R130Q variant; antibody at 0.11 nM
[9] = target: his-labeled human IL-13R130Q variant (human) (UniProt P35225); assay: ELISA, IL-13R130Q variant; antibody at 0.004 nM
[10] = target: his-labeled human IL-13 (immunogen A) (human) (UniProt P35225); assay: FACS blocking, biotin-IL-13 on IL-13Ra2 HEK293 cells; antibody at 0.01 nM
[11] = target: his-labeled human IL-13 (immunogen A) (human) (UniProt P35225); assay: FACS blocking, biotin-IL-13 on IL-13Ra2 HEK293 cells; antibody at 0.05 nM
[12] = target: his-labeled human IL-13 (immunogen A) (human) (UniProt P35225); assay: FACS blocking, biotin-IL-13 on IL-13Ra2 HEK293 cells; antibody at 0.27 nM
[13] = target: his-labeled human IL-13 (immunogen A) (human) (UniProt P35225); assay: FACS blocking, biotin-IL-13 on IL-13Ra2 HEK293 cells; antibody at 1.33 nM
[14] = target: his-labeled human IL-13 (immunogen A) (human) (UniProt P35225); assay: FACS blocking, biotin-IL-13 on IL-13Ra2 HEK293 cells; antibody at 6.67 nM
[15] = target: his-labeled human IL-13 (immunogen A) (human) (UniProt P35225); assay: FACS blocking, biotin-IL-13 on IL-13Ra2 HEK293 cells; antibody at 0.002 nM
[16] = target: his-labeled human IL-13 (immunogen A) (human) (UniProt P35225); assay: FACS blocking, biotin-IL-13 on IL-13Ra2 HEK293 cells; antibody at 33.33 nM
[17] = target: his-labeled human IL-13 (immunogen A) (human) (UniProt P35225); assay: FACS blocking, biotin-IL-13 on IL-13Ra2 HEK293 cells; antibody at 166.67 nM
[18] = target: his-labeled human IL-13 (immunogen A) (human) (UniProt P35225); assay: FACS blocking, biotin-IL-13 on IL-13Ra1/IL-4Ra HEK293 cells; antibody at 0.01 nM
[19] = target: his-labeled human IL-13 (immunogen A) (human) (UniProt P35225); assay: FACS blocking, biotin-IL-13 on IL-13Ra1/IL-4Ra HEK293 cells; antibody at 0.05 nM
[20] = target: his-labeled human IL-13 (immunogen A) (human) (UniProt P35225); assay: FACS blocking, biotin-IL-13 on IL-13Ra1/IL-4Ra HEK293 cells; antibody at 0.27 nM
[21] = target: his-labeled human IL-13 (immunogen A) (human) (UniProt P35225); assay: FACS blocking, biotin-IL-13 on IL-13Ra1/IL-4Ra HEK293 cells; antibody at 1.33 nM
[22] = target: his-labeled human IL-13 (immunogen A) (human) (UniProt P35225); assay: FACS blocking, biotin-IL-13 on IL-13Ra1/IL-4Ra HEK293 cells; antibody at 6.67 nM
[23] = target: his-labeled human IL-13 (immunogen A) (human) (UniProt P35225); assay: FACS blocking, biotin-IL-13 on IL-13Ra1/IL-4Ra HEK293 cells; antibody at 0.002 nM
[24] = target: his-labeled human IL-13 (immunogen A) (human) (UniProt P35225); assay: FACS blocking, biotin-IL-13 on IL-13Ra1/IL-4Ra HEK293 cells; antibody at 33.33 nM
[25] = target: his-labeled human IL-13 (immunogen A) (human) (UniProt P35225); assay: FACS blocking, biotin-IL-13 on IL-13Ra1/IL-4Ra HEK293 cells; antibody at 166.67 nM
[26] = target: his-labeled human IL-13 (immunogen A) (human) (UniProt P35225); assay: FACS blocking assay: antibody titrated with biotin-labeled immunogen A (30 ng/mL); blocked partner IL-13Ra1/IL-4Ra on HEK293 clone 4C1; Alexa 488 streptavidin

cynomolgus IL-13 (purchased from sino biological) (cynomolgus), sequence (Q0PW92 entry or part of it): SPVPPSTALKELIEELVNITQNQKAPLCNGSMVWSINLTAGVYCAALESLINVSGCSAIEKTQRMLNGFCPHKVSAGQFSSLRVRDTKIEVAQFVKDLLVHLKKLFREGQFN
his-labeled human IL-13R130Q variant (human), sequence (P35225 other isoform, or with tags, fused parts or gaps mutant): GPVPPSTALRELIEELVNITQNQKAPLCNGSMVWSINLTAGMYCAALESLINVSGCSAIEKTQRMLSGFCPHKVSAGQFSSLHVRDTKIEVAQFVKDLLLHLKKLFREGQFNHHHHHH

Periostin (pg/mL), MRCS cells + IL-13 5 ng/mL; antibody at 0.0002 nM [1]: 7100 pg/mL
Periostin (pg/mL), MRCS cells + IL-13 5 ng/mL; antibody at 0.001 nM [1]: 6020 pg/mL
Periostin (pg/mL), MRCS cells + IL-13 5 ng/mL; antibody at 0.004 nM [1]: 4870 pg/mL
Periostin (pg/mL), MRCS cells + IL-13 5 ng/mL; antibody at 0.021 nM [1]: 4480 pg/mL
Periostin (pg/mL), MRCS cells + IL-13 5 ng/mL; antibody at 0.11 nM [1]: 4360 pg/mL
Periostin (pg/mL), MRCS cells + IL-13 5 ng/mL; antibody at 0.53 nM [1]: 4460 pg/mL
Periostin (pg/mL), MRCS cells + IL-13 5 ng/mL; antibody at 2.67 nM [1]: 2850 pg/mL
Periostin (pg/mL), MRCS cells + IL-13 5 ng/mL; antibody at 13.3 nM [1]: 1350 pg/mL
TARC (pg/mL), A549 cells + IL-13 + TNFα; antibody at 0.001 nM [1]: 3200 pg/mL
TARC (pg/mL), A549 cells + IL-13 + TNFα; antibody at 0.004 nM [1]: 3150 pg/mL
TARC (pg/mL), A549 cells + IL-13 + TNFα; antibody at 0.021 nM [1]: 3040 pg/mL
TARC (pg/mL), A549 cells + IL-13 + TNFα; antibody at 0.11 nM [1]: 2610 pg/mL
TARC (pg/mL), A549 cells + IL-13 + TNFα; antibody at 0.53 nM [1]: 2370 pg/mL
TARC (pg/mL), A549 cells + IL-13 + TNFα; antibody at 2.67 nM [1]: 1090 pg/mL
TARC (pg/mL), A549 cells + IL-13 + TNFα; antibody at 13.3 nM [1]: 227 pg/mL
TARC (pg/mL), A549 cells + IL-13 + TNFα; antibody at 66.7 nM [1]: 54 pg/mL
VCAM-1 fluorescence intensity, HUVEC + IL-13 0.5 ng/mL + TNFα; antibody at 0.0002 nM [1]: 408
VCAM-1 fluorescence intensity, HUVEC + IL-13 0.5 ng/mL + TNFα; antibody at 0.001 nM [1]: 402
VCAM-1 fluorescence intensity, HUVEC + IL-13 0.5 ng/mL + TNFα; antibody at 0.004 nM [1]: 452
VCAM-1 fluorescence intensity, HUVEC + IL-13 0.5 ng/mL + TNFα; antibody at 0.021 nM [1]: 408
VCAM-1 fluorescence intensity, HUVEC + IL-13 0.5 ng/mL + TNFα; antibody at 0.11 nM [1]: 313
VCAM-1 fluorescence intensity, HUVEC + IL-13 0.5 ng/mL + TNFα; antibody at 0.53 nM [1]: 299
VCAM-1 fluorescence intensity, HUVEC + IL-13 0.5 ng/mL + TNFα; antibody at 2.67 nM [1]: 238
VCAM-1 fluorescence intensity, HUVEC + IL-13 0.5 ng/mL + TNFα; antibody at 13.3 nM [1]: 165
OD450 nm [2]: 0.59
OD450 nm [3]: 3.1
OD450 nm [4]: 1.63
OD450 nm [5]: 0.061
OD450 nm [6]: 0.136
OD450 nm [7]: 0.59
OD450 nm [8]: 0.97
OD450 nm [9]: 0.13
mean fluorescence intensity [10]: 98.1
mean fluorescence intensity [11]: 90
mean fluorescence intensity [12]: 63.8
mean fluorescence intensity [13]: 29
mean fluorescence intensity [14]: 22.2
mean fluorescence intensity [15]: 99.1
mean fluorescence intensity [16]: 20.3
mean fluorescence intensity [17]: 19.3
mean fluorescence intensity [18]: 96.8
mean fluorescence intensity [19]: 96.7
mean fluorescence intensity [20]: 81.5
mean fluorescence intensity [21]: 33.1
mean fluorescence intensity [22]: 19.5
mean fluorescence intensity [23]: 102
mean fluorescence intensity [24]: 19.6
mean fluorescence intensity [25]: 18.7
IC50 (read off the curve) [26]: 0.5 nM
B1: c35E2C3 (mouse-human chimeric IL-13 antibody) (antibody, V domains shown)
VH: EVQLQESGPGLAKPSQTLSLTCSVTGYSITSDYWNWIRKFPGNKLEYMGYISYNGNTYYNPSLKSQISITRDTSKNQLYLQLKSATTEDTATYYCARLAKWTWYFDIWGTGTTVTVSS
VL: DIQMNQSPSSLSASLGDTITITCHASQNINVWLSWYQQKPGSLPKLLIYKASDLHTGVPSRFSGSGSGTGFTLTISSLQPEDIATYYCQQGQSYPYTFGGGTKLEIK
